Experimental data from the supplement of paper PMC11865577.

What was measured:
Assay in all cases: pull-down binding Z-score (relative to library population); higher = stronger binding
[1] = system: G-clamp-N3 (biotin conjugate); settings: RNA library: Library-1 (pre-miRNA loops + repeats)
How it was run: (§1)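 Heat-folded RNA library (1 μg, Cy5 or Cy3 end label, phosphate/NaCl/KCl buffer) was captured for 60 min at 25 °C on streptavidin beads displaying 100 pmol of biotin-conjugated small molecule, then washed three times. The bound fraction, eluted in hot SDS, was hybridised to a DNA barcode microarray at 55.5 °C for 20 h. Z-scores for binding were taken against the library mean and standard deviation after beads-only subtraction and trimmed averaging of replicate barcoded probes.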

[2] = system: TO-3-N3 (biotin conjugate); settings: RNA library: Library-2
How it was run: as §1

[3] = system: TO-3-N3-2 (biotin conjugate); settings: RNA library: Library-2
How it was run: as §1

TO-N3 (biotin conjugate) = settings: RNA library: Library-2
How it was run: as §1

[4] = system: TO-N3-2 (biotin conjugate); settings: RNA library: Library-2
How it was run: as §1

| Sequence | pull-down binding Z-score [1] | pull-down binding Z-score [2] | pull-down binding Z-score [3] | pull-down binding Z-score (TO-N3 (biotin conjugate)) | pull-down binding Z-score [4] |
| --- | --- | --- | --- | --- | --- |
| UGUUGAGCGCAGUAAGACAACA [hsa-mir-3529] | 0.892 | -0.51 | -0.0511 | -0.482 | -0.0925 |
| ACGCGCUGUGACACUUCAAACUCGU [hsa-mir-126] | -0.904 | -0.0932 | -0.171 | 0.062 | 0.424 |
| CCAUUAUUGCUACUGUUCAGCAGGUGCUGCUGGUGGUGAUGG [hsa-mir-1260b] | -0.182 | 0.0654 | -0.25 | 0.244 | -0.182 |
| GGCAGGAGGCAGUGAAGUAACUUGC [hsa-mir-3934] | -0.848 | 1 | 0.583 | 1.43 | 1.2 |
| CAGAGGGGCUGGCAGUACUGCUCUG [hsa-mir-4649] | 2.75 | 0.999 | 0.258 | 1.08 | 1.22 |
| AGUGCCUCACAGCCGCACAGGACCGAGGAUGCU [hsa-mir-4737] | 0.613 | 0.0032 | -0.204 | 0.371 | 0.917 |
| AUUCUGAUGAUCACCUAGCCAGAAU [hsa-mir-5583-2] | -0.301 | 1.52 | 0.566 | 1.45 | 0.317 |
| AGGUAGUGUGAUUACCCAACCUACU [hsa-mir-93] | 0.373 | -0.148 | -0.179 | 0.0315 | 0.272 |
| GGGCCUGGGUUUCUGAACAC [hsa-mir-196a-1] | 0.486 | 0.328 | 0.334 | 0.611 | 0.762 |
| AGUUUCUGGAAGUUCUGACAUUCCAGAAACU [hsa-mir-3199-1] | -0.18 | -0.846 | -0.409 | -1.1 | -0.95 |
| CAUUAACGUGGACCAGACAAUAUUAAUG [hsa-mir-4491] | -1.14 | -0.339 | -0.12 | -0.0907 | -0.0295 |
| AUCAUGUAUAAUUAAAAAUGAU [hsa-mir-509-2_509-3_509-1] | -0.568 | -0.267 | -0.0578 | -0.599 | -1 |
| UUCUUUGAGGAUCUGGCCUAAAGAG [hsa-mir-202] | -0.443 | 1.14 | 0.362 | 1.27 | 0.811 |
| UUAAUGAGGCCAUAGA [hsa-mir-6863] | -0.397 | -0.374 | -0.277 | -0.328 | -0.294 |
| AGGCACAUAUGUGAACAUUGUACCA [hsa-mir-5707] | -0.48 | 0.023 | 0.00393 | 0.0876 | -0.108 |
| GCCUUGUUGCAUAUGGAUCAAGC [hsa-mir-103a-1] | 0.266 | -0.346 | -0.376 | -0.178 | 0.388 |
| UUGGCGUAGUGAAAUAUAUAUUAAACACCAA [hsa-mir-16-2] | -0.484 | 0.128 | 0.371 | 0.0274 | 0.0267 |
| AAAUCCCGUUAAUAAGUAAGAGGAUUU [hsa-mir-2113] | 0.525 | 0.503 | 0.143 | 0.817 | 0.758 |
| CCUGAUGAAUCUGAGGCCAGG [hsa-mir-577] | 1.14 | -0.271 | 0.118 | -0.18 | 0.326 |
| GGGCUUUCUGGUUUUAUUUUAAGCCC [hsa-mir-186] | 0.465 | 0.594 | 0.0672 | 0.261 | -0.494 |

| Sequence | pull-down binding Z-score [1] | pull-down binding Z-score [2] | pull-down binding Z-score [3] | pull-down binding Z-score (TO-N3 (biotin conjugate)) | pull-down binding Z-score [4] |
| --- | --- | --- | --- | --- | --- |
| UGCUAUUAGAAAGUAAUGGCA [hsa-mir-548ba] | 0.465 | 0.757 | 0.507 | 0.776 | -0.00903 |
| AAGGUGGAGUUCUGGGUGCUGUUUUCCCACUCU [hsa-mir-378i] | -0.335 | 0.0547 | 0.299 | 0.173 | 0.429 |
| AUAUGUGUGUAUAUAUGUACACAUAC [hsa-mir-466] | -0.157 | -0.227 | -0.378 | -0.604 | -1.14 |
| UGGUUACGUGUUUGAUGGUUAAUCA [hsa-mir-376a-2] | 1.55 | -0.155 | -0.0388 | -0.0926 | -0.0517 |
| GAGGCCAGAGGUGCCC [hsa-mir-4292] | 0.687 | -0.0325 | 0.122 | 0.295 | 1.3 |
| UCUUAGACUAUUACAAGA [hsa-mir-3672] | -0.633 | 0.922 | 0.0159 | 0.614 | -0.526 |
| AUAUGAGCUUCAUUUAUACAUUUCAUAU [hsa-mir-556] | -0.528 | -0.0401 | -0.0541 | -0.335 | -1.01 |
| GCACUCUGUAGUUUGGGUACACAGUGC [hsa-mir-5011] | 1.49 | -0.741 | -0.259 | -0.77 | -0.478 |
| CAAGCACACAGGGCCUGGGACUAGCAUG [hsa-mir-4728] | -0.152 | 0.506 | 0.256 | 0.993 | 1.52 |
| GAGGGAUGAGUGCACUUCACCUGC [hsa-mir-4435-1_4435-2] | 0.0709 | -0.191 | 0.0965 | 0.375 | 0.859 |
| CCUGCUGUGUGAAACAAAAGUAAG [hsa-mir-302c] | -1.08 | -0.422 | 0.0469 | 0.103 | 0.474 |
| CUGGCAUUUACGAGUCAGAGUUCUUACAGAGCUGC [hsa-mir-6514] | -1.37 | 0.163 | 0.16 | 0.639 | 1.48 |
| GGUGGCAAUCAAGGUCUAGCCACC [hsa-mir-4733] | 1.02 | 0.369 | 0.265 | 0.287 | 0.228 |
| GAGUCAGAAAAACUAC [hsa-mir-601] | -1.28 | 0.125 | -0.0131 | 0.484 | 0.271 |
| GGGGUAGAAGCCACCCG [hsa-mir-4466] | 0.458 | 0.149 | 0.0166 | 0.492 | 1.46 |
| AAAUUGCAGACACUAGGACCAUGUCUUGGUUUUUGCAAUAAUG [hsa-mir-1248] | 0.0385 | -0.228 | -0.133 | -0.189 | -0.641 |
| GGUAUGGAUUCUGUUGUUUUGGCAACAUUCU [hsa-mir-8088] | 0.269 | -0.382 | 0.124 | -0.328 | -0.244 |
| GUGAGGCAGGGAGCUGAGCUCAC [hsa-mir-3622a] | -0.0355 | 0.401 | 0.142 | 0.698 | 1.06 |
| ACCAAAACACUCAUCGCGG [hsa-mir-1260a] | -0.734 | -0.138 | 0.105 | -0.188 | -0.00378 |
| CACUCAGGCAGUGCCAUGAGC [hsa-mir-6811] | -0.12 | 0.249 | -0.366 | 0.408 | 0.422 |

| Sequence | pull-down binding Z-score [1] | pull-down binding Z-score [2] | pull-down binding Z-score [3] | pull-down binding Z-score (TO-N3 (biotin conjugate)) | pull-down binding Z-score [4] |
| --- | --- | --- | --- | --- | --- |
| UAUAGGAAGGAAAUCUUAU [hsa-mir-6129] | -0.636 | -0.671 | -0.279 | -0.641 | -0.517 |
| GCCUGCCCUGAGUCCCCCAGCAGGU [hsa-mir-3907] | -0.55 | 1.45 | 0.663 | 1.46 | 0.912 |
| AGUUACACAGCUCACGAGUGCCU [hsa-mir-370] | -0.352 | -0.261 | -0.0679 | 0.113 | 0.694 |
| AGUUGAACACUUGUUGGGACAACCU [hsa-mir-4421] | -0.336 | 0.939 | 0.156 | 0.971 | 0.711 |
| GCUGGGGGUAAAUGACUUGCACAUGAACACAAC [hsa-mir-708] | -0.951 | -0.0277 | 0.191 | 0.304 | 0.578 |
| CUGGGAAGGGAGCUGUCCGGCUCCCCAG [hsa-mir-3155b] | 2.41 | -0.412 | -0.263 | -0.53 | -0.136 |
| CUUAGUAGGUGAUAGCAUGACUGAC [hsa-mir-5002] | 1.66 | 0.324 | 0.356 | 0.958 | 1.16 |
| GUGUGUUACCUAGAAAUAGCACU [hsa-mir-378a] | -1.11 | -0.283 | -0.165 | -0.282 | -0.118 |
| CUAAUCUCUUAGCACUGAAGAUUAG [hsa-mir-4671] | -0.0111 | 0.0266 | -0.253 | -0.125 | -0.473 |
| CUGGGUUCUUAGAGGCCUAAUCCUCUACAAACUCAGUUU [hsa-mir-4305] | -1.01 | -0.124 | -0.258 | 0.144 | 0.546 |
| CAAAUCGCCUCUUCAAUGGAUUUG [hsa-mir-133a-1] | 1.23 | 0.308 | -0.209 | 0.0594 | -0.613 |
| UCACUGCUGCUGGCGCCCUGA [hsa-mir-943] | -0.764 | 0.0735 | 0.0365 | 0.432 | 0.911 |
| UUUUGCAGUUGAAAGUAAUGGCAAAG [hsa-mir-548ao] | 2.64 | -0.235 | 0.00731 | -0.0635 | 0.259 |
| CCUUUCCCCUCAGACCAAGG [hsa-mir-3131] | -0.0682 | -0.315 | -0.26 | -0.412 | -0.176 |
| CUGCUGCUGCUGCUGCUGCUGCUGCUGCUGCUGCUGCUGCUGCUGCUG [r(CUG)16] | 2.5 | -0.0148 | -0.215 | 0.778 | 1.37 |
| CCCAGCCUUCCAGAGUUGGUGCCAGG [hsa-mir-4476] | -0.593 | 0.892 | 0.0973 | 1.14 | 1.11 |
| CCCACUUCCUGGA [hsa-mir-4260] | -0.562 | -0.513 | -0.529 | -0.494 | -0.0316 |
| CUGGCUGGUCCAGCCCCUCAGAAG [hsa-mir-6796] | -0.944 | 1.16 | 0.4 | 1.39 | 1.47 |
